Measured values: the supplement of paper PMC5998384

Legend:
HeLa Kyoto [1] = experiment: solubility in G1/S (NP-40 vs SDS abundance) (log2 ratio); higher = more soluble; details: cell cycle stage: G1/S
HeLa Kyoto [2] = experiment: melting temperature (median over replicates), in situ; higher = more thermally stable
HeLa Kyoto [3] = experiment: solubility change mitosis vs G1/S (difference of NP-40 vs SDS log2 ratios) (log2 ratio difference); higher = more soluble in mitosis
HeLa Kyoto [4] = experiment: thermal stability score vs G1/S (z-score of summed log2 fold changes over temperatures); higher = more thermally stable than in G1/S
[5] = cell cycle stage: early G1 (4.5 h after nocodazole release)
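Throughout, for melting temperature (median over replicates), in situ: HeLa Kyoto cells synchronized by double thymidine or nocodazole block, proteins quantified by TMT10plex mass spectrometry, three independent biological replicates.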
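Throughout, for solubility change mitosis vs G1/S (difference of NP-40 vs SDS log2 ratios): synchronized HeLa Kyoto cells (double thymidine block for G1/S, nocodazole release for mitosis), protein amounts in NP-40 versus SDS lysates quantified by mass spectrometry, three biological replicates.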
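Throughout, for solubility in G1/S (NP-40 vs SDS abundance): HeLa Kyoto cells arrested at G1/S by double thymidine block, proteins quantified by TMT10plex mass spectrometry in mild NP-40 versus SDS extracts, three biological replicates.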
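Throughout, for thermal stability score vs G1/S (z-score of summed log2 fold changes over temperatures): synchronized HeLa Kyoto cells, proteins quantified by TMT10plex mass spectrometry, three biological replicates, mitosis taken 0.5 h after nocodazole release, G1/S directly after double thymidine block.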

Sequence of LIMD1 (chain, as listed by the source): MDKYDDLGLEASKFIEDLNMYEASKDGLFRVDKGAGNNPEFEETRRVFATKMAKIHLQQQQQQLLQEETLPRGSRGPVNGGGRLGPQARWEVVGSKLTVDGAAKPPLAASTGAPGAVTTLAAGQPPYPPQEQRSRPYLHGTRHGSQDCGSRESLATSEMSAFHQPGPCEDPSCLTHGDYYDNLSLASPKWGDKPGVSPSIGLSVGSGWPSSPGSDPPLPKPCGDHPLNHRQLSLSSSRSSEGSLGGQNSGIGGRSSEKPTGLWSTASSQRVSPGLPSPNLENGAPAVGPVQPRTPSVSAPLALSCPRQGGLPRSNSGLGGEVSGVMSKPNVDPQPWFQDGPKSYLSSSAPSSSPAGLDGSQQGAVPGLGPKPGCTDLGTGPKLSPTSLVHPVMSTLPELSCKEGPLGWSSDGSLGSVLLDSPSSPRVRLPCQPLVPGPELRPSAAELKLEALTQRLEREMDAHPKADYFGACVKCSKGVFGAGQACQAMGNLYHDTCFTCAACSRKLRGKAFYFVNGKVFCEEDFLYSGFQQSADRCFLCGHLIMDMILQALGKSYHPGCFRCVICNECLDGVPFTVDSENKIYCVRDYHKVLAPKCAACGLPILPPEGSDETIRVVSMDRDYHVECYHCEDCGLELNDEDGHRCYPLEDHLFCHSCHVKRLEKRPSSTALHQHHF

Substance	solubility in G1/S (log2) (HeLa Kyoto [1])	melting temperature (HeLa Kyoto [2]; cell cycle stage: G1/S) [°C]	melting temperature (HeLa Kyoto [2]; cell cycle stage: mitosis) [°C]	solubility change mitosis (log2) (HeLa Kyoto [3])	thermal stability score (HeLa Kyoto [4]; [5])	thermal stability score (HeLa Kyoto [4]; cell cycle stage: mitosis)
LIMD1	0.148	51.8	51.9	-0.126	0.183	-0.541
LRP1	-0.0261	55.5	55.1	-0.0628	-1.09	-1.22
LSM14B	0.0485	49.6	50	0.137	0.76	1.45
MAAAAAAGEARRVLVYGGRGALGSRCVQAFRARNWWVASVDVVENEEASASIIVKMTDSFTEQADQVTAEVGKLLGEEKVDAILCVAGGWAGGNAKSKSLFKNCDLMWKQSIWTSTISSHLATKHLKEGGLLTLAGAKAALDGTPGMIGYGMAKGAVHQLCQSLAGKNSGMPPGAAAIAVLPVTLDTPMNRKSMPEADFSSWTPLEFLVETFHDWITGKNRPSSGSLIQVVTTEGRTELTPAYF [QDPR]	0.236	55.5	55.5	-0.0466	-1.31	-0.994
MAAAAAGTATSQRFFQSFSDALIDEDPQAALEELTKALEQKPDDAQYYCQRAYCHILLGNYCVAVADAKKSLELNPNNSTAMLRKGICEYHEKNYAAALETFTEGQKLDIETGFHRVGQAGLQLLTSSDPPALDSQSAGITGADANFSVWIKRCQEAQNGSESEVWTHQSKIKYDWYQTESQVVITLMIKNVQKNDVNVEFSEKELSALVKLPSGEDYNLKLELLHPIIPEQSTFKVLSTKIEIKLKKPEAVRWEKLEGQGDVPTPKQFVADVKNLYPSSSPYTRNWDKLVGEIKEEEKNEKLEGDAALNRLFQQIYSDGSDEVKRAMNKSFMESGGTVLSTNWSDVGKRKVEINPPDDMEWKKY [SUGT1]	0.138	51.5	52	-0.0323	0.39	-0.171
MAAAAAQGGGGGEPRRTEGVGPGVPGEVEMVKGQPFDVGPRYTQLQYIGEGAYGMVSSAYDHVRKTRVAIKKISPFEHQTYCQRTLREIQILLRFRHENVIGIRDILRASTLEAMRDVYIVQDLMETDLYKLLKSQQLSNDHICYFLYQILRGLKYIHSANVLHRDLKPSNLLINTTCDLKICDFGLARIADPEHDHTGFLTEYVATRWYRAPEIMLNSKGYTKSIDIWSVGCILAEMLSNRPIFPGKHYLDQLNHILGILGSPSQEDLNCIINMKARNYLQSLPSKTKVAWAKLFPKSDSKALDLLDRMLTFNPNKRITVEEALAHPYLEQYYDPTDEPVAEEPFTFAMELDDLPKERLKELIFQETARFQPGVLEAP [MAPK3]	0.391	51.3	50.2	-0.228	-0.246	-0.247
MAAAAGRSLLLLLSSRGGGGGGAGGCGALTAGCFPGLGVSRHRQQQHHRTVHQRIASWQNLGAVYCSTVVPSDDVTVVYQNGLPVISVRLPSRRERCQFTLKPISDSVGVFLRQLQEEDRGIDRVAIYSPDGVRVAASTGIDLLLLDDFKLVINDLTYHVRPPKRDLLSHENAATLNDVKTLVQQLYTTLCIEQHQLNKERELIERLEDLKEQLAPLEKVRIEISRKAEKRTTLVLWGGLAYMATQFGILARLTWWEYSWDIMEPVTYFITYGSAMAMYAYFVMTRQEYVYPEARDRQYLLFFHKGAKKSRFDLEKYNQLKDAIAQAEMDLKRLRDPLQVHLPLRQIGEKD [MCU]	0.00831	53	52.9	-0.0872	0.0563	-1.45
MAAAALRSGWCRCPRRCLGSGIQFLSSHNLPHGSTYQMRRPGGELPLSKSYSSGNRKGFLSGLLDNVKQELAKNKEMKESIKKFRDEARRLEESDVLQEARRKYKTIESETVRTSEVLRKKLGELTGTVKESLHEVSKSDLGRKIKEGVEEAAKTAKQSAESVSKGGEKLGRTAAFRALSQGVESVKKEIDDSVLGQTGPYRRPQRLRKRTEFAGDKFKEEKVFEPNEEALGVVLHKDSKWYQQWKDFKENNVVFNRFFEMKMKYDESDNAFIRASRALTDKVTDLLGGLFSKTEMSEVLTEILRVDPAFDKDRFLKQCENDIIPNVLEAMISGELDILKDWCYEATYSQLAHPIQQAKALGLQFHSRILDIDNVDLAMGKMMEQGPVLIITFQAQLVMVVRNPKGEVVEGDPDKVLRMLYVWALCRDQDELNPYAAWRLLDISASSTEQIL [TIMM44]	0.144	52	51.6	-0.0435	0.205	-0.742
MAAAANSGSSLPLFDCPTWAGKPPPGLHLDVVKGDKLIEKLIIDEKKYYLFGRNPDLCDFTIDHQSCSRVHAALVYHKHLKRVFLIDLNSTHGTFLGHIRLEPHKPQQIPIDSTVSFGASTRAYTLREKPQTLPSAVKGDEKMGGEDDELKGLLGLPEEETELDNLTEFNTAHNKRISTLTIEEGNLDIQRPKRKRKNSRVTFSEDDEIINPEDVDPSVGRFRNMVQTAVVPVKKKRVEGPGSLGLEESGSRRMQNFAFSGGLYGGLPPTHSEAGSQPHGIHGTALIGGLPMPYPNLAPDVDLTPVVPSAVNMNPAPNPAVYNPEAVNEPKKKKYAKEAWPGKKPTPSLLI [PPP1R8]	0.0809	50.4	51.2	-0.0793	0.0118	-0.547
MAAAAPDSRVSEEENLKKTPKKKMKMVTGAVASVLEDEATDTSDSEGSCGSEKDHFYSDDDAIEADSEGDAEPCDKENENDGESSVGTNMGWADAMAKVLNKKTPESKPTILVKNKKLEKEKEKLKQERLEKIKQRDKRLEWEMMCRVKPDVVQDKETERNLQRIATRGVVQLFNAVQKHQKNVDEKVKEAGSSMRKRAKLISTVSKKDFISVLRGMDGSTNETASSRKKPKAKQTEVKSEEGPGWTILRDDFMMGASMKDWDKESDGPDDSRPESASDSDT [RRP15]	-1.21	–	54.2	0.962	-5.18	-11.7
MAAAAVSGALGRAGWRLLQLRCLPVARCRQALVPRAFHASAVGLRSSDEQKQQPPNSFSQQHSETQGAEKPDPESSHSPPRYTDQGGEEEEDYESEEQLQHRILTAALEFVPAHGWTAEAIAEGAQSLGLSSAAASMFGKDGSELILHFVTQCNTRLTRVLEEEQKLVQLGQAEKRKTDQFLRDAVETRLRMLIPYIEHWPRALSILMLPHNIPSSLSLLTSMVDDMWHYAGDQSTDFNWYTRRAMLAAIYNTTELVMMQDSSPDFEDTWRFLENRVNDAMNMGHTAKQVKSTGEALVQGLMGAAVTLKNLTGLNQRR [COQ9]	0.16	51.5	51.8	0.333	-0.112	0.754
MAAACRSVKGLVAVITGGASGLGLATAERLVGQGASAVLLDLPNSGGEAQAKKLGNNCVFAPADVTSEKDVQTALALAKGKFGRVDVAVNCAGIAVASKTYNLKKGQTHTLEDFQRVLDVNLMGTFNVIRLVAGEMGQNEPDQGGQRGVIINTASVAAFEGQVGQAAYSASKGGIVGMTLPIARDLAPIGIRVMTIAPGLFGTPLLTSLPEKVCNFLASQVPFPSRLGDPAEYAHLVQAIIENPFLNGEVIRLDGAIRMQP [HSD17B10]	0.254	54.5	54.4	-0.041	0.0147	-4.18
MAAAEAGGDDARCVRLSAERAQALLADVDTLLFDCDGVLWRGETAVPGAPEALRALRARGKRLGFITNNSSKTRAAYAEKLRRLGFGGPAGPGASLEVFGTAYCTALYLRQRLAGAPAPKAYVLGSPALAAELEAVGVASVGVGPEPLQGEGPGDWLHAPLEPDVRAVVVGFDPHFSYMKLTKALRYLQQPGCLLVGTNMDNRLPLENGRFIAGTGCLVRAVEMAAQRQADIIGKPSRFIFDCVSQEYGINPERTVMVGDRLDTDILLGATCGLKTILTLTGVSTLGDVKNNQESDCVSKKKMVPDFYVDSIADLLPALQG [PGP]	0.536	56.8	58.2	-0.00434	-0.684	-1.2
